One assay addresses LDLR (human) (UniProt P01130).
Assay [1] addresses human PCSK9-D347Y (human) (UniProt Q8NBP7). Kind of assay: cell-based or functional assay.

Chain of LDLR (human) (P01130 22-860): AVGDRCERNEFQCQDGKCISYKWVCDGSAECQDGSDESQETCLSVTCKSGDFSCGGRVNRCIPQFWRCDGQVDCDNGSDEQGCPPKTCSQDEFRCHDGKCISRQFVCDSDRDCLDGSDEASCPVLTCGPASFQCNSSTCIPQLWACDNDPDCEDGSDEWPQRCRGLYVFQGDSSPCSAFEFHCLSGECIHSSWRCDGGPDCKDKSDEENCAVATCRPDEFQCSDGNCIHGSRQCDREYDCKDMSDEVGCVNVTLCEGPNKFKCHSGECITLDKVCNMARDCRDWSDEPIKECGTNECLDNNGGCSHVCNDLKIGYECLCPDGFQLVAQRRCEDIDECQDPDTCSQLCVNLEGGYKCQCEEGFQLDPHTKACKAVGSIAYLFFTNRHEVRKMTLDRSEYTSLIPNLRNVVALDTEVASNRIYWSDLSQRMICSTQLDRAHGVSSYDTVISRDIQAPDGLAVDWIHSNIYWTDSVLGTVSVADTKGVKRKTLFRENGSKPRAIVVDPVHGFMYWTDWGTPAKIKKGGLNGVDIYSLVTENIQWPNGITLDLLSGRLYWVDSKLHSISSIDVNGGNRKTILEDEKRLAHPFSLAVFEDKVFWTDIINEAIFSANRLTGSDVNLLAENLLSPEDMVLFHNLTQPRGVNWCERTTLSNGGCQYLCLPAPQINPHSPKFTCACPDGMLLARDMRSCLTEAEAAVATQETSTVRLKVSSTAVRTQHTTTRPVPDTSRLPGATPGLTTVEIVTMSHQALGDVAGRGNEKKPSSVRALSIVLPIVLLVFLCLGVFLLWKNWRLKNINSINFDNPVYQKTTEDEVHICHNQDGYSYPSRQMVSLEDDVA

In the assay with LDLR (human), “Cynomolgus monkey PCSK9 (from UniProt A0A7N9D9N8) (enzyme)” displayed an IC50 of the fall in RFU as PCSK9 concentration rises ('Inhibition of different PCSK9 antigen species'; binding and uptake of LDL by cells) of 2.46 µg/mL.

In the case of evolocumab (antibody), the EC50, uptake of fluorescently labeled LDL by HepG2 cells exposed to human PCSK9-D347Y in assay [1] worked out at 0.151 µg/mL.

In assay [1], JS002 (antibody) yielded a Biological activity (LDL uptake assay in HepG2 cells), formulation 20, 25 C, month 0 (% of reference standard) of 104; a Biological activity (LDL uptake assay in HepG2 cells), formulation 20, 25 C, month 1 (% of reference standard) of 94.2; a Biological activity (LDL uptake assay in HepG2 cells), formulation 20, 25 C, month 3 (% of reference standard) of 92.6; a Biological activity (LDL uptake assay in HepG2 cells), formulation 20, 25 C, month 6 (% of reference standard) of 81.1. In assay [1], this substance displayed a Biological activity (LDL uptake assay in HepG2 cells), formulation 28, 2-8 C, month 0 (% of reference standard) of 120; a Biological activity (LDL uptake assay in HepG2 cells), formulation 28, 2-8 C, month 1 (% of reference standard) of 106; a Biological activity (LDL uptake assay in HepG2 cells), formulation 28, 2-8 C, month 2 (% of reference standard) of 111; a Biological activity (LDL uptake assay in HepG2 cells), formulation 28, 2-8 C, month 3 (% of reference standard) of 109. In assay [1], this substance registered a Biological activity (LDL uptake assay in HepG2 cells), formulation 28, 2-8 C, month 6 (% of reference standard) of 106; a Biological activity (LDL uptake assay in HepG2 cells), formulation 28, 2-8 C, month 9 (% of reference standard) of 104; a Biological activity (LDL uptake assay in HepG2 cells), formulation 28, 2-8 C, month 12 (% of reference standard) of 109; a Biological activity (LDL uptake assay in HepG2 cells), formulation 29, 2-8 C, month 0 (% of reference standard) of 102. In assay [1], this substance returned a Biological activity (LDL uptake assay in HepG2 cells), formulation 29, 2-8 C, month 1 (% of reference standard) of 103; a Biological activity (LDL uptake assay in HepG2 cells), formulation 29, 2-8 C, month 2 (% of reference standard) of 97.3; a Biological activity (LDL uptake assay in HepG2 cells), formulation 29, 2-8 C, month 3 (% of reference standard) of 90.3; a Biological activity (LDL uptake assay in HepG2 cells), formulation 29, 2-8 C, month 6 (% of reference standard) of 84.9. In assay [1], the Biological activity (LDL uptake assay in HepG2 cells), formulation 29, 2-8 C, month 9 (% of reference standard) worked out at 103; the Biological activity (LDL uptake assay in HepG2 cells), formulation 29, 2-8 C, month 12 (% of reference standard) came to 97.7; the Biological activity (LDL uptake assay in HepG2 cells), formulation 30, 2-8 C, month 0 (% of reference standard) came out at 114; the Biological activity (LDL uptake assay in HepG2 cells), formulation 30, 2-8 C, month 1 (% of reference standard) turned out to be 94.6. In assay [1], this substance gave a Biological activity (LDL uptake assay in HepG2 cells), formulation 30, 2-8 C, month 2 (% of reference standard) of 96.8; a Biological activity (LDL uptake assay in HepG2 cells), formulation 30, 2-8 C, month 3 (% of reference standard) of 98.7; a Biological activity (LDL uptake assay in HepG2 cells), formulation 30, 2-8 C, month 6 (% of reference standard) of 92.3; a Biological activity (LDL uptake assay in HepG2 cells), formulation 30, 2-8 C, month 9 (% of reference standard) of 106. In assay [1], the Biological activity (LDL uptake assay in HepG2 cells), formulation 30, 2-8 C, month 12 (% of reference standard) was 97.2; the Biological activity (LDL uptake assay in HepG2 cells), formulation 31, 2-8 C, month 0 (% of reference standard) is 122; the Biological activity (LDL uptake assay in HepG2 cells), formulation 31, 2-8 C, month 1 (% of reference standard) was 97.9; the Biological activity (LDL uptake assay in HepG2 cells), formulation 31, 2-8 C, month 2 (% of reference standard) is 83.5. In assay [1], this substance yielded a Biological activity (LDL uptake assay in HepG2 cells), formulation 31, 2-8 C, month 3 (% of reference standard) of 107; a Biological activity (LDL uptake assay in HepG2 cells), formulation 31, 2-8 C, month 6 (% of reference standard) of 108; a Biological activity (LDL uptake assay in HepG2 cells), formulation 31, 2-8 C, month 9 (% of reference standard) of 87.8; a Biological activity (LDL uptake assay in HepG2 cells), formulation 31, 2-8 C, month 12 (% of reference standard) of 102. For the same substance, in assay [1], the EC50, uptake of fluorescently labeled LDL by HepG2 cells exposed to human PCSK9-D347Y came out at 0.0927 µg/mL.

These data come from patent US20210393777A1.
